Legend:
LNCaP tumor (PSMA+) = assay: MMAE release from conjugates in LNCaP tumor model (biodistribution by LC-MS); type: in vivo, mice; settings: 24 h after intravenous injection, LNCaP tumor model, n=3
Protocol: LNCaP tumor cells were grown to 80% confluence and detached with Trypsin-EDTA 0.05%. Cells were resuspended in PBS at a density of 30×10^6 cells/mL. The cell suspension was further diluted 1:1 with Matrigel. 200 μL of LNCaP cells (3×10^6 cells) were injected subcutaneously in the left flank of female athymic Balb/c AnNRj-Foxn1 mice (6 to 8 weeks of age). Tumors were grown until volumes of 200-300 mm^3 were observed.
0.1 ml of 50 μM solutions (2% DMSO, PBS) of the four Conjugates (1-4) were injected intravenously into 4 of the mice (1 mouse per SMDC). The animals were sacrificed after 24 h and the following organs were extracted: blood, LNCaP tumor (PSMA+), heart, lungs, liver, kidney, spleen, stomach. The blood fraction was centrifuged, and the plasma (supernatant) was extracted. The organs were preserved at −80° C. before being used for further analysis.
Frozen plasma or mouse tissues (˜50 mg) were thawed and treated with 600 μL of an aqueous solution containing 95% acetonitrile (ACN), and 0.1% HCOOH were added to induce protein precipitation. 50 μL of a solution of d8-MMAE, 50 nM) was added as internal standard. Samples were then homogenized with a tissue lyser for 15 minutes at 30 Hz. After homogenization, samples were centrifuged (21'000 g for 10 minutes). The supernatant was collected and dried at room temperature with a rotary evaporator. Pellets were then resuspended in 1 mL of an aqueous solution containing 3% ACN and 0.1% of TFA and subsequently purified on Oasis HLB SPE columns. Eluates were dried under vacuum at room temperature. […] Peak areas of analytes and internal standards were integrated, and corresponding ratios were calculated. The ratios were then transformed into pmol/g of wet tissue using single-concentration external calibration points and corrected by the total weight of the sample analysed. The percentage of injected dose per gram (% ID/g) was finally calculated by normalizing the value based on the total dose injected into the mouse. […]

HT1080.hPSMA tumor = assay: MMAE release from conjugates in HT1080.hPSMA tumor model (comparison and timepoint study); type: in vivo, mice; settings: 250 nmol/kg; for MMAE release compared with Conjugate 1: 24 h after intravenous injection, HT1080.hPSMA tumor model
Protocol: HT1080.hPSMA tumor cells were grown to 90% confluence and detached with Trypsin-EDTA 0.05%. Cells were resuspended in Hank's Balanced Salt Solution (HBSS) at a density of 5×10^7 cells/mL. 100 μL of HT1080.hPSMA cells (5×10^6 cells) were injected subcutaneously in the right flank of female athymic Balb/c AnNRj-Foxn1 mice (6 to 8 weeks of age). Tumors were grown until ˜250 mm^3 volume (average).
Comparison study: 0.1 mL of 50 μM solutions (2% DMSO, PBS, 250 nmol/kg) of the four conjugates (1 to 4) were injected intravenously. The animals were sacrificed in groups of 3 after 24 h, and blood and the following organs were extracted: HT1080.hPSMA tumor, heart, lungs, liver, kidney, spleen, stomach. The blood fraction was centrifuged, and the plasma (supernatant) was extracted. The organs were stored at −80° C. before being used for further analysis.
Timepoint study: 0.1 mL of a 50 μM solution (2% DMSO, PBS, 250 nmol/kg) of conjugate 1 was injected intravenously into the tail vein of the mice. The animals were sacrificed in groups of 3 after 6 h, 24 h, 48 h, and 72 h, and blood and the following organs were extracted: HT1080.hPSMA tumor, heart, lungs, liver, kidney, spleen, stomach. The blood fraction was centrifuged, and the plasma (supernatant) was extracted. The organs were stored at −80° C. before being used for further analysis.
Frozen plasma (50 μL) and mouse tissues (˜50 mg) were thawed, and 500 μL of PBS was added. Samples were kept on ice, and 50 μL solution of internal standard (d8-MMAE, 50 nM) was added. Samples were then homogenized at 4° C. with a tissue lyser for 2 minutes at 30 Hz for 4 cycles. After homogenization, samples were centrifuged (21'000 g, 10 min). Subsequently, 100 μL of supernatants were collected and added to 900 μL of acetonitrile (ACN) to induce protein precipitation. After centrifugation (21'000 g, 10 min), 800 μL of supernatants were collected and dried at room temperature with a vacuum centrifuge. Pellets were then resuspended in 20 μL of an aqueous solution containing 3% ACN and 0.1% of HCOOH, and 5 μL were injected into the UHPLC-MS system. Chromatographic separation was carried out on a Hypersil Gold C18 column (100 mm×2.1 mm, 1.9 μm particle size, 175 Å pore size) column temperature was set at 50° C. and a flow rate of 700 μL/min with a gradient program from 95% A (water+0.1% HCOOH), 5% B (ACN+0.1% HCOOH) to 35% of A in 2.5 minutes, from 35% A to 5% A in 0.4 minutes and 5% A was kept for 1.3 minutes before reconditioning at 95% A. The LC system was coupled to a Q-Exactive mass spectrometer via an Ion Max HESI Source. Ionization was carried out with a spray voltage of 3.5 kV; Sheath gas 40 units; Aux gas 10 units; capillary temperature of 380° C.; Aux gas temperature 450° C.; S-lens RF level 60. The mass spectrometer was operating in targeted Single Ion Monitoring mode (t-SIM) following the molecular ion 718.5113 m/z. The detector was working in positive ionization mode with the following parameters: resolution 70'000 (FWHM at 200 m/z); AGC target of 5×10^4; maximum injection time of 200 ms; isolation window 14 m/z; isolation offset 5 m/z. Peak areas of analytes and internal standards were integrated, and corresponding ratios were calculated. The ratios were then transformed into pmol/g of wet tissue using single-concentration external calibration points and corrected by the total weight of the sample analysed. The percentage of injected dose per gram (% ID/g) was finally calculated by normalizing the value based on the total dose injected into the mouse. Data analysis was performed with Skyline v22.2.0.351.

HT1080.hPSMA xenografts [1] = assay: Comparative therapy experiment in mice bearing HT1080.hPSMA xenografts (tumor volume); type: in vivo; settings: 250 nmol/kg i.v. on days 8, 10, 12 after tumor implantation, n=5
Protocol: HT1080.hPSMA tumor cells were grown to 90% confluence and detached with Trypsin-EDTA 0.05%. Cells were resuspended in Hank's Balanced Salt Solution (HBSS) at a 5×10^7 cells/mL density. 100 μL of HT1080.hPSMA cells (5×10^6 cells) were injected subcutaneously in the right flank of female athymic Balb/c AnNRj-Foxn1 mice (6 to 8 weeks of age). Tumors were grown until volumes of […].
Tumor-bearing mice were randomized into groups of 5 and 0.1 mL of 50 μM solutions (2% DMSO, PBS, 250 nmol/kg) of the four conjugates (1 to 4), or saline solution (0.9% NaCl) was injected intravenously three times with 1-day break in between (days 8, 10, and 12 after tumor implantation).

HT1080.hPSMA xenografts [2] = assay: Payload study and combination therapy with L19-IL2 in HT1080.hPSMA tumor model (tumor volume); type: in vivo, mice; settings: conjugates 250 nmol/kg i.v. days 7 and 11; L19-IL2 2.5 mg/kg i.v. days 8, 10, 12; n=3/4
Protocol: HT1080.hPSMA tumor cells were grown to 90% confluence and detached with Trypsin-EDTA 0.05%. Cells were resuspended in Hank's Balanced Salt Solution (HBSS) at a 5×10^7 cells/mL density. 100 μL of HT1080.hPSMA cells (5×10^6 cells) were injected subcutaneously in the right flank of female athymic Balb/c AnNRj-Foxn1 mice (6 to 8 weeks of age). Tumors were grown until an average volumes of ˜100 mm^3 was reached.
Tumor-bearing mice were randomized into groups of 3 or 4 animals. A 50 μM solution (2% DMSO, 250 nmol/kg; 100 μL) of Conjugate 1, 5, or 6, L19-IL2 (SEQ ID NO: 10, 0.5 mg/mL, 2.5 mg/kg; 100 μL), PBS (100 μL), or L19-IL2 buffer (NaH2PO4 6.7 mM, NaCl 20 mM, KCl 1.8 mM, Mannitol 133 mM, Tween80 0.1% v/v, Glycerol 1% w/v; 100 μL) was injected intravenously (i.e., systemic administration through tail-vein) with the following schedule:
Groups of Conjugates 1, 5, or 6: two separate injections with a 3-day break in between (day 7 and day 11 after tumor implantation).
L19-IL2 group: three separate injections with a 1-day break in between (day 8, day 10, and day 12 after tumor implantation).
Combination therapy groups: two separate injections of Conjugate 1, 5, or 6 with a 3-day break in between (day 7 and day 11 after tumor implantation) and three separate injections of L19-IL2 with a 1-day break in between (day 8, day 10, and day 12 after tumor implantation). […]

| Compound | MMAE release, experiment repeated with three mice each (LNCaP tumor (PSMA+)) | MMAE release compared with Conjugate 1 (HT1080.hPSMA tumor) | MMAE release in tumor (HT1080.hPSMA tumor; 24 hours after intravenous injection, HT1080.hPSMA tumor, n=3) [% ID/g] | Therapeutic efficacy (tumor volume change) (HT1080.hPSMA xenografts [1]) | In vivo anti-tumor activity, monotherapy (tumor volume) (HT1080.hPSMA xenografts [2]) |
| --- | --- | --- | --- | --- | --- |
| CC[C@H](C)[C@@H]([C@@H](CC(=O)N1CCC[C@H]1[C@H](OC)[C@@H](C)C(=O)N[C@H](C)[C@@H](O)c1ccccc1)OC)N(C)C(=O)[C@@H](NC(=O)[C@H](C(C)C)N(C)C(=O)OCc1ccc(NC(=O)[C@H](CCCNC(N)=O)NC(=O)[C@@H](NC(=O)CCCCCN2C(=O)CC(SC[C@H](N)C(=O)NCCCCCC(=O)NC[C@H]3CC[C@H](C(=O)N[C@@H](Cc4ccc5ccccc5c4)C(=O)NCCCC[C@H](NC(=O)N[C@@H](CCC(=O)O)C(=O)O)C(=O)O)CC3)C2=O)C(C)C)cc1)C(C)C (stereo partly drawn) [Conjugate 2] | confirmed | significantly lower or no release of MMAE | 1.7 | tumor growth retardation but did not lead to shrinkage of the tumor mass | – |
| L19-IL2: Immunocytokine: L19-derived scFv (binds ED-B domain of fibronectin) linked to IL2, SEQ ID NO: 10 [Conjugate L19-IL2] | – | – | – | – | only a slight tumor growth retardation |
| CC[C@H](C)[C@@H]([C@@H](CC(=O)N1CCC[C@H]1[C@H](OC)[C@@H](C)C(=O)N[C@H](C)[C@@H](O)c1ccccc1)OC)N(C)C(=O)[C@@H](NC(=O)[C@H](C(C)C)N(C)C(=O)OCCSSC[C@H](N)C(=O)NCCCCCC(=O)NC[C@H]1CC[C@H](C(=O)N[C@@H](Cc2ccc3ccccc3c2)C(=O)NCCCC[C@H](NC(=O)N[C@@H](CCC(=O)O)C(=O)O)C(=O)O)CC1)C(C)C [Conjugate 3] | – | significantly lower or no release of MMAE | – | didn't display any therapeutic efficacy | – |
| CC[C@H](C)[C@@H]([C@@H](CC(=O)N1CCC[C@H]1[C@H](OC)[C@@H](C)C(=O)N[C@H](C)[C@@H](O)c1ccccc1)OC)N(C)C(=O)[C@@H](NC(=O)[C@H](C(C)C)N(C)C(=O)CCCCCN1C(=O)CC(SC[C@H](N)C(=O)NCCCCCC(=O)NC[C@H]2CC[C@H](C(=O)N[C@@H](Cc3ccc4ccccc4c3)C(=O)NCCCC[C@H](NC(=O)N[C@@H](CCC(=O)O)C(=O)O)C(=O)O)CC2)C1=O)C(C)C (stereo partly drawn) [Conjugate 4] | – | significantly lower or no release of MMAE | – | didn't display any therapeutic efficacy | – |

Source: patent US12576154B2, “Conjugates of PSMA-binding moieties with cytotoxic agents” (PHILOCHEM AG, priority 2022, dated 2026)
